In publication PMC4643373:

Biological target: FMRP isoform 1 (FMRP ISO1) (human (title of cited purification …, UniProt Q06787 1-632))
Assay: fluorescence spectroscopy

GGGUACGGGAGGGUAAGGCUGUGGGUCGCGUG (structured_RNA, 2-aminopurine replacing A5) [NR2B 2AP mRNA]
Kd: 370 nM
